Measurements as given in publication PMC8542387 (2021).

B1: Mip1-myc (wild type) [S. pombe] / FLAG-tagged Tor2 kinase [S. pombe] (parent complex)
chain 1: MNDRISEVSGSSRARRSVLSYGTTETGSDRYTENSNIATENGVDTASSMIDGIQSGFPQPRHGFEEEYNNAEYINMLEQVFYMYYTDKRHRGVISKKNAEPTETIHDWRMRERLKTVSAALLVCLNIGVDPPDVIKPNPAAKYECWIDPFSLPASKALEAIGKNLQQQYETLSMRTRYRHYLDPAIEEVKKLCIGQRRNAKEERILFHYNGHGVPMPTASGEIWVFNKNYTQYIPVSLYDLQSWLGAPCIYVYDCSAAGNIIVNFNRFAEQRDKEALRIAKQNPNVLAMPSHTSCIQLAACGPKETLPMNPDLPADLFTSCLTSPIEISVRWYVLQNPFPNKLNLNMLLKIPGRLQDRRTPLGELNWIFTAITDTIAWNVFPKHLFRRLFRQDLMVAALFRNFLLAERIMLVHSCHPQSSPELPPTHDHPMWNSWDLAIDNCLSQLPDMLDAESKGIAYEYKHSTFFSEQLTAFEVWLSQGLISRKPPDQLPLVLQVLLSQVHRLRALILLSKFLDLGVWAVDLALSIGIFPYVLKLLQSPAIELKPVLVFIWARILAVDDSCQADLLKDNGYGYFVQILNPNSSIFPSSNISEHRAMCAFILSVFCRGFPQGQLACLNPQVLSHCLSHLNSPDSLLRQWACLCISQLWENYSEAKWSGTRDNAHVKLAEIIVDSVPEVRASVLTAFTTFLGFPEKTEEVVAVETYIAIAALAALSDASPLVRHELVIFLSHFVVNYKKQLMVVAYESSLADILEKKNHNSISASTIYETVWQAVLVLAADPSIEISLAAEAIINYVYQSMLNSELRESFLAFLLQHLPALHKASLSKDTDTNSVTSDPKPHPFVPSVSENKILNRSFSLTRSLKGLALSLAGSDRASELLSLNGENKPAESNLNHLTSAKVPGPPAFNELEYQSELDMPLTSYLFDWSRKYFTEPQMRPNEDDEPGSICYNQRLWRRNRNEKLIYRTRPLAEYSTNGRWNQQLMTFNNTIAPRKLMFHQFEDQLITLGDKDIIQVWDWRRNRCLNSFKTSASATTNVTDMQLLNEDDVALLMTGSSDGTIKLYRDYENEKVELVTSWNSLSDLVFGDRNASLLMSWQQNCGHLLVAGDVRVIRIWDASKEICYANLPVRSSNSITSLTSDLVGCNIIVAGFSDGVLRVYDKRLPARDSLTDVWKEHSSEIVNVEMQSSGMRELISASSDGEVKLWDIRMNHSLQTFSTDNSGLTSLTVHSHAPVYATGSSNQSIKIWDTLGQNINTFRENPRFLNQPKPSSLMCLKFHPHHLLLACGDNTDSRVNLYSCTKNEIHTDSPNEF
chain 2: MKEFPGLKSRNEEIRNKAANDLYEYVIAYSRELSGEALVQFNNDVNKYVYTLIHSTDPLDRLAGVTAINRLIDYEGEDTTRITRFANYLRIILPGTDQKATVLAAKALGRLAVPGGALTSEFVNFEVKRALEWLQGERNENRRYAAVLILKELAKNTSTLIYAHIDSIFELLWHGLRDPKVTIRIASADALSEFLKIVRQRDSSIRLQWYTSILNEAQRGVAQGSSDYIHGSLLVYRQLFLKAGMFMHERYREVSDIILQFRDHKDLLIRKTVTELIATLAAYNPDEFVSNYLHVCMLHLLNLLKKENVKMLAFATIGKVAVAITNSIIPYLDPICDSIKESLKIHIRNKSASDAAIFQCISLLSIALGQAFSNYAYDLFDLIFASGLSEASYRALSDLAHNIPPLLPVIQERLLDMLSKILSGRPFIPPGCPPQYVARSLKSSKSASLKTGFFPNDVYILALKVLGNFDFSGYILNEFVKDCVVVYLENNDPEVRKTASITCSQLFARDPILSQTSDHAIQVVAEVLEKLLTVGICDTVPDIRLTVLNSLDSRFNKHLAQADKIRLLFIAINDENFAVRESALRIIGRLNVYNPAYVMPYLRKIMLKTLTILDYSTIIRTKEENAKLLCLLIAAAPRLIESHVEPILQILLPKAKDSSSIVAASIVNSLGEICQISGEVIVPFIKDLMPLIIEALQDQSSPIRRAAALKALGNLSSSTGYVIDPYIEFPSLLDILIGITKTEQDITIRRETIKLIGTLGALDPNRHRVLEKGTEKVVPEQKNIPPDISLLMSGIGPSSDEYYPTVVITALMSILKDPSLTIHHTAVIQAVMYIFKTMGLRCAPFLSQIIPEFIAVMRTCPTNILEFYFQQLSILVLIVRQHIRSFLPDLFKLIKDFWNPHSNLQFTILSLIESLARAMQGEFKPYLPSLLVMMLQIFDSDVSVDSVSTKKVLHAFIVFGDTLADYFHMLLDPILRLYERNDVSIGIKESIMITIGRLSMVINLSEYASRIIHPVMRMLSCNNASLIRVSMDTVCALIYQLNVDFAIFIPMIDKCLKMNGVTHETYSILVEQFLQEQPLPIKLNPYEKYDKPKLDVVASAADITSKKLPVNQEILRNAWEASQRSTKDDWQEWIRRLGVALLRESPSHALRACAALAAAYQPLARDLFNASFVSCWSELYDHFQEELVKSIEIALTSPHISPEIIQILLNLAEFMEHDDKPLPIDIRTLGAYAAKCHAFAKALHYKELEFIEEELVTKPSVDTIEALISINNQLQQPDAAIGILKHAQQHDKMNLKETWYEKLQRWEDALSAYEKREAAGAGNFEITMGKLRCLHALGEWDRLSQLAQENWIHAGHDARRYIAPLSVAAAWGLGQWEQMDEYISVMKSESPDKAFFNAIVALHRSQFEEAASYITRARDLLDTELTALVGESYNRAYSVAVRVQMLSELEEIITYKKAEDKPEVREMIKKTWVRRLKGCQRNVDVWQRMLRIRSLVISPRDNMEMWIKFANLCRKSGRISLAKKSLNLLLEDDENLDNSLVLKKTHPSIVYANLKFLWAVDDKRKALNSMQEFTSQLISDINVDPALFVQSTSVNTQKSQEEIQYYFHLLARCYHKQGQWQQEIENNWSEGSFDGVLQSYMYATQFDSKWYKAWHSWALANFEAVKFLEQSEEQIPSAAYEQYIIPAVKGFFKSIALSKGNLQDTLRLLNLWFKFGNNSNVINTLNVGISTVNIDIWLDVIPQLIARIHASSLSVRKSVHQLLSDVGRAHPQALVYPLTVAAKSQSSARQNAALAIMDSLKTHSPRLVEQARLVSHELIRAAILWHEQWHEGLEEASRLYFGDHNIEGMFAVLRPLHEMLERGPETLREISFQQAFGRDLVEARDCCIRFEQTGDISDLNQAWDLYYQVFKKIRKQLPQLTTLDLQYVSPKLLHVHDLELAVPGTYVSGKPVIRIVKFYPTFNVITSKQRPRRLSIKGSDGKDYQYVLKGHEDIRQDERVMQLFGLCNNLLLADPETFKRLLSIQRYPVIPLSPDSGLLGWVLDSDTLHVLIRDYRESRKILLNIEHRLIIQMAPDYDRLTLLQKVEVFEYALLSTTGQDLYRVLWLKSRSSEAWLNRRTNYSRTLAVMSMVGYILGLGDRHPSNLMLDRYTGNIIHIDFGDCFEVAMHREKFPEKIPFRLTRMLVNAMEVSGIEGTFRITCEHVMRVLRTNKESVMAVLEAFVYDPLINWRLAPAYSPSIDEKQSNEPNTLLGETIDGLHRKRLNEEGITLEERQKPEILNQRAITVLNRVSNKLTGRDFKPQQQLDVPSQVEKLILQATSIENLCLCYIGWCSFW

Variants of: B1
Assay: co-immunoprecipitation (anti-FLAG affinity beads) with quantified immunoblot; n=3 independent experiments; parent: 1; read off a plot

Going from chain 1 R358A to chain 1 Y533A, the ratio to parent rises from ~0.42 to ~0.9.

In the case of chain 1 R504A, the ratio to parent is reported as ~0.53.
